Consider 36 sequences from the supplement of paper PMC10567573.

± gives the standard deviation.

The nature of the series: protein stability index of a GFP-peptide fusion (GPS, HEK-293T) (PSI 1-6); higher = more stable. The settings on record: c terminus: a fixed tail appended.
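Also: 24-mer peptide tiles fused after GFP, lentivirally expressed, FACS-sorted into six equal bins by GFP/DsRed ratio, decoded by Illumina sequencing, PSI is the read-weighted mean bin number.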

Regarding ALSKHFIPYNAKFLGSTEVEQPKG [GULP1], the protein stability index by setting is: (treatment: DMSO) 3.19 ± 0.23; (treatment: MLN4924 1 uM, 8 h) 3.55 ± 0.2.
For ALSTERELFAWGRGDSGRLGLGTR [NEK8], in that order: 3.56 ± 0.17 and 3.46 ± 0.42.
In the same order, the values of ALVSAHSEWQRKLEAAEALLTLRN [DMRTC1] are 3.44 ± 0.24 and 3.57 ± 0.17.
For AMLDEISLMDLAIEEGFNPVQASQ [NFE2L1], in that order: 3.53 ± 0.39 and 3.66 ± 0.2.
Consider ANSLLASPTGLSPYLRFGCLSCRL [CRY1], for which the protein stability index was 2.15 ± 0.27 (treatment: DMSO) and 2.37 ± 0.32 (treatment: MLN4924 1 uM, 8 h).
Take APAVEVAPAGASYNPSFEDHQTLL [NOP53]: the protein stability index by setting is: (treatment: DMSO) 4.84 ± 0.12; (treatment: MLN4924 1 uM, 8 h) 5.14 ± 0.25.
Take APDRLRASASCSHWRECLFYPALW [FBXO33]: the protein stability index runs as follows: (treatment: DMSO) 2.33 ± 0.43; (treatment: MLN4924 1 uM, 8 h) 2.28 ± 0.26.
On to APGDLSATEPATCFPSTQKPTEPS [FBF1], for which the protein stability index (treatment: DMSO) turned out to be 5.22 ± 0.22 and the protein stability index (treatment: MLN4924 1 uM, 8 h) was 5.343 ± 0.051.
For APGPSRIADYLLLPLAEREHVSRA [TRIB1], in that order: 3 ± 0.46 and 3.38 ± 0.77.
On to APGVLTNKRKTYTESYIARPDGDC [ZC2HC1A], for which the protein stability index stood at 4.27 ± 0.12 (treatment: DMSO) and 4.29 ± 0.3 (treatment: MLN4924 1 uM, 8 h).
AQEEEEEDQGRTRKRKQSGHSPAR [DDIT3] registered a protein stability index (treatment: DMSO) of 5.47 ± 0.31 and a protein stability index (treatment: MLN4924 1 uM, 8 h) of 5.7 ± 0.24.
For AQQWRRARHNYNDLCPPIGRRAAT [GNAS], in that order: 3.58 ± 0.3 and 3.6 ± 0.16.
Regarding ARAFAQRYLADLLPSVFGSLRDSG [RSPH3], the protein stability index is, setting by setting: (treatment: DMSO) 2.29 ± 0.41; (treatment: MLN4924 1 uM, 8 h) 2.25 ± 0.28.
Take ASAIKKEELVARSETHAAGHSQEK [CHGB]: the protein stability index reads like this: (treatment: DMSO) 5.4 ± 0.43; (treatment: MLN4924 1 uM, 8 h) 5.37 ± 0.31.
ASAQPLPAPEAAHTTGPTGSAPNS [TFE3] gave a protein stability index (treatment: DMSO) of 5.35 ± 0.18 and a protein stability index (treatment: MLN4924 1 uM, 8 h) of 5.46 ± 0.15.
For ASCLQELFKAHFRGEVLPEEITEE [INTS3], in that order: 3.71 ± 0.34 and 3.95 ± 0.12.
For ASEPLPWDLRFRIIHETAVGMNFL [RIPK4], in that order: 2.43 ± 0.15 and 2.33 ± 0.19.
With ASFYACRLDKHLYVIGGRNETGYL [KLHL14], the protein stability index stood at 2.7 ± 0.54 (treatment: DMSO) and 2.54 ± 0.95 (treatment: MLN4924 1 uM, 8 h).
Take ASSGSNSSASSEQGLLGRSPPTRP [SPRY1]: the protein stability index reads like this: (treatment: DMSO) 5.19 ± 0.34; (treatment: MLN4924 1 uM, 8 h) 5.38 ± 0.2.
On to ASVSSHRFFGPNAEISQPPALSQL [TCF25], for which the protein stability index reads like this: (treatment: DMSO) 3.35 ± 0.46; (treatment: MLN4924 1 uM, 8 h) 3.29 ± 0.35.
For ASYDKTVRAWDLETGKLLWKVRYD [WDR88], in that order: 2.31 ± 0.4 and 2.14 ± 0.31.
In the same order, the values of ASYVVFRIIYMLLITIATFQIAAN [SLC19A2] are 3.09 ± 0.94 and 3.19 ± 0.18.
As for ATGDYLFEPHSGEDYSRDEDHIAH [SRPK2], the protein stability index runs as follows: (treatment: DMSO) 5.23 ± 0.2; (treatment: MLN4924 1 uM, 8 h) 5.28 ± 0.27.
Take ATVWSSNVGRVHRVAKKLQSGLVW [ALDH8A1]: the protein stability index by setting is: (treatment: DMSO) 2.81 ± 0.87; (treatment: MLN4924 1 uM, 8 h) 2.24 ± 0.96.
For ATWMLEVCEEQKCEEEVFPLAMNY [CCND1], in that order: 3.61 ± 0.16 and 3.77 ± 0.25.
For AVGGRDDTTELSSAERYNPRTNQW [KLHL20], the protein stability index reads like this: (treatment: DMSO) 4.47 ± 0.21; (treatment: MLN4924 1 uM, 8 h) 4.5 ± 0.16.
For the sequence AVRKLKFARHIKKSEGQKIPKVEL [GULP1], the protein stability index (treatment: DMSO) came out at 3.1 ± 0.091 and the protein stability index (treatment: MLN4924 1 uM, 8 h) is 3.13 ± 0.21.
For AVSQPFRLSSSLQGSAVTLKTSKM [CDC14A], the protein stability index by setting is: (treatment: DMSO) 3.77 ± 0.3; (treatment: MLN4924 1 uM, 8 h) 3.71 ± 0.28.
In the same order, the values of AVWLIFFMLGLGTLLPWNFFMTAT [SLC29A1] are 3.09 ± 0.66 and 2.6 ± 0.12.
For AYSLNKIHAYNLGTNAWEEIATKP [KLHDC10], in that order: 2.56 ± 0.39 and 2.79 ± 0.57.
For CFARKSQLTGHQRIHSGEEPHKCP [ZNF449], the protein stability index reads like this: (treatment: DMSO) 3.64 ± 0.1; (treatment: MLN4924 1 uM, 8 h) 4.01 ± 0.18.
For CFKNWDGSPVSSWILLAESNSADD [OAS1], in that order: 3.04 ± 0.24 and 3.38 ± 0.4.
For CGERLSLGLSRAQPVQSKPQKASA [PDLIM7], in that order: 3.85 ± 0.38 and 4.06 ± 0.33.
For CGTPEYLAPEVIQSKGHGRAVDWW [PRKX], in that order: 2.72 ± 0.54 and 2.45 ± 0.15.
As for CHKYDRNIQVTGSAALFYLTNSEY [ZER1], the protein stability index stood at 2.28 ± 0.34 (treatment: DMSO) and 1.97 ± 0.23 (treatment: MLN4924 1 uM, 8 h).
For CIDIVIRHVAPIPSHYDVQDRFRI [MOSPD3], in that order: 2.77 ± 0.61 and 2.93 ± 0.55.
